Positions count from the first letter of the chain named. Numbers in names are those of the source. Blank lines part the entries; values can stand above or below the binder they belong to.
Target: HDAC1 (full-length) (UniProt Q13547 1-482)
Experiment: cell-based or functional assay

HDAC1 (full-length), sequence (Q13547 whole entry): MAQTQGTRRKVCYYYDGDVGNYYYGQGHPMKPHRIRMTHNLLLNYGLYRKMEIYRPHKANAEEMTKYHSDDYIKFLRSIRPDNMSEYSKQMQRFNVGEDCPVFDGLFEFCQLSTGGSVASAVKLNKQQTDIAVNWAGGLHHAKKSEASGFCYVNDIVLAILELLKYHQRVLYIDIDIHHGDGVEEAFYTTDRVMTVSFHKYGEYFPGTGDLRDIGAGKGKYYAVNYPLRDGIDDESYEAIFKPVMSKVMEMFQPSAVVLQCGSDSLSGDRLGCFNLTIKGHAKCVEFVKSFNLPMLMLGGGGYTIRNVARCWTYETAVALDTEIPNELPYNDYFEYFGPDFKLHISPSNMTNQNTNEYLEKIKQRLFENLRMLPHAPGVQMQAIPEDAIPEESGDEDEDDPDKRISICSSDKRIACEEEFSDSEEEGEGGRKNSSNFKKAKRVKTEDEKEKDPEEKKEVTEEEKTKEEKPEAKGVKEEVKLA

initial rate of deacetylation of H3K9ac peptide (100 µM) by the MiDAC complex (50 nM HDAC1), NMR assay: 6.3 nM/s
B1: MIDEAS (628-887) (domain or fragment, human, UniProt Q6PJG2 628-887, looked up)
chain: TPYQSHLRSPVRLADHPSERSFELPPYTPPPILSPVREGSGLYFNAIISTSTIPAPPPITPKSAHRTLLRTNSAEVTPPVLSVMGEATPVSIEPRINVGSRFQAEIPLMRDRALAAADPHKADLVWQPWEDLESSREKQRQVEDLLTAACSSIFPGAGTNQELALHCLHESRGDILETLNKLLLKKPLRPHNHPLATYHYTGSDQWKMAERKLFNKGIAIYKKDFFLVQKLIQTKTVAQCVEFYYTYKKQVKIGRNGTLT

initial rate of deacetylation of H3K9ac peptide (100 µM) by the MiDAC complex (50 nM HDAC1), NMR assay: 29.7 nM/s
B5: MIDEAS 717-887 (WT) (domain or fragment, human, UniProt Q6PJG2 717-887, looked up)
chain: VSIEPRINVGSRFQAEIPLMRDRALAAADPHKADLVWQPWEDLESSREKQRQVEDLLTAACSSIFPGAGTNQELALHCLHESRGDILETLNKLLLKKPLRPHNHPLATYHYTGSDQWKMAERKLFNKGIAIYKKDFFLVQKLIQTKTVAQCVEFYYTYKKQVKIGRNGTLT

Second part, the binder before the results:

B2: MIDEAS 628-887 Y654S T655A (SAP) (domain or fragment, human, UniProt Q6PJG2 628-887, looked up)
chain: B1 chain with Y27S, T28A
initial rate of deacetylation of H3K9ac peptide (100 µM) by the MiDAC complex (50 nM HDAC1), NMR assay: 16.6 nM/s

B3: MIDEAS 628-887 Y654S T655D (SDP) (domain or fragment, human, UniProt Q6PJG2 628-887, looked up)
chain: B1 chain with Y27S, T28D
initial rate of deacetylation of H3K9ac peptide (100 µM) by the MiDAC complex (50 nM HDAC1), NMR assay: 27.3 nM/s

B4: MIDEAS 628-887 Y654S (STP) (domain or fragment, human, UniProt Q6PJG2 628-887, looked up)
chain: B1 chain with Y27S
modifications: phosphorylation either on S654 or T655 detected on more than 41% of the peptides containing STP
initial rate of deacetylation of H3K9ac peptide (100 µM) by the MiDAC complex (50 nM HDAC1), NMR assay: 20.4 nM/s

— publication PMC12647621, “A de novo missense variant in MIDEAS results in increased deacetylase activity of the MiDAC HDAC complex causing a neurodevelopmental syndrome” (Nature Communications, 2025)
